Article PMC9953004, “Scandium-44 Radiolabeled Peptide and Peptidomimetic Conjugates Targeting Neuropilin-1 Co-Receptor as Potential Tools for Cancer Diagnosis and Anti-Angiogenic Therapy” (Biomedicines, 2023)
Where a SMILES comes first, the peptide text is derived from it. Where no end group is shown, it is not given here. Side-chain parts run from the residue outwards. [ ]: non-standard residue; d: D form. The star is where a group is joined. DOTA = O=C(O)CN1CCN(CC(=O)O)CCN(CC(=O)*)CCN(CC(=O)O)CC1; hArg = N=C(N)NCCCC[C@H](N)C(=O)O; Dab = NCC[C@H](N)C(=O)O; Ahx = NCCCCCC(=O)O

Legend:
VEGF-A165/NRP-1 complex = biological target: T1, VEGF-A165/NRP-1 complex (Homo sapiens, UniProt O14786); assay: Competitive NRP-1-binding inhibition assay (competitive ELISA, bt-VEGF-A165 vs coated NRP-1); conditions: for logIC50 ± SD / IC50: inhibition of VEGF-A165/NRP-1 complex formation, mean ± SD, n = 3; for binding affinity for NRP-1: summary of competitive ELISA results
T1 construct: purchased BioLegend (NRP-1); Abcam (bt-VEGF-A165)
T1 sequence (O14786 22-641 limits assumed): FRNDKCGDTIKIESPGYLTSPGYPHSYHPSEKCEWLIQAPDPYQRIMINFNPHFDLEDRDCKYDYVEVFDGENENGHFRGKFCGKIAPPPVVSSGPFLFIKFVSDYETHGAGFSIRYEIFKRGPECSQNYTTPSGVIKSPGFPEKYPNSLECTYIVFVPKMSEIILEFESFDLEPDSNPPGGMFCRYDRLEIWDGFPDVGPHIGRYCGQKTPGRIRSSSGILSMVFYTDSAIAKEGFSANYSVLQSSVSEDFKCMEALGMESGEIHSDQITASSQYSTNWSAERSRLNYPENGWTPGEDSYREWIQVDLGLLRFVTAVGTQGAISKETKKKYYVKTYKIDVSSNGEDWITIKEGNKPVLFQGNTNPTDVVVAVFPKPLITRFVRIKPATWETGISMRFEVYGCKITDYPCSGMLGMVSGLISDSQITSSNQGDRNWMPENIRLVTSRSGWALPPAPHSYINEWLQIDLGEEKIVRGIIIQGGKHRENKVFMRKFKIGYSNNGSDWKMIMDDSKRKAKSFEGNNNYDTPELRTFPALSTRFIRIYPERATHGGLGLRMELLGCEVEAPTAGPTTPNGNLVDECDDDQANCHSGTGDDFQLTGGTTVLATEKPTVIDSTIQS
Procedure: The study of biological activity (inhibition of VEGF-A165/NRP-1 binding) of Sc-1, Sc-1bis, Sc-2, Sc-3 and Ga-3 compounds was tested by competitive ELISA test. The method used was similar to the one previously described. Briefly, the first step was to coat the bottom surface of a 96-well plate using 100 µL (200 ng/well) of recombinant human NRP-1 and incubate overnight at 4 °C. Nonspecific binding was blocked with 0.5% BSA (bovine serum albumin) in PBS. Following this, 50 µL of the solution of tested compound in PBS, in the selected concentrations (100 [µM], 50 [µM], 25 [µM], 12.5 [µM] and […]), and 50 µL (400 ng/mL) of human (bt)-VEGF-A165 in PBS containing 4 µg/mL of heparin were added. After 2 h of incubation at room temperature, the plate was washed and treated with a streptavidin–horseradish peroxidase conjugate in PBS (1:100) for 45 min. After the final wash, the chemiluminescence was quantified immediately after addition of 100 μL chemiluminescent substrate. Wells incubated with (bt)-VEGF-A165 served only as positive control (P), while wells not coated with NRP-1 were used as negative control (NS). Percentages of inhibition were calculated according to the following formula. % inhibition=100% −(S−NS)·100%/P−NS where: S—measured signal, NS—negative control signal, P—positive control signal. Test IC50 [µM] values (mean ± SD of three independent experiments) were determined by nonlinear regression analysis (log(inhibitor) vs. normalized response—variable slope) generated in GraphPad Prism 9.0.0 program (Graph Pad, San Diego, CA, USA).

physchem = format: physicochemical; conditions: for logP ± SD: pH 7.4
Procedure: The lipophilicity value, defined as the decimal logarithm (logP) of the partition coefficient (P), was tested in the system of two immiscible (but saturated with each other) phases: 0.1 M PBS solution, pH 7.4, and n-octanol, in three independent experiments. Partition coefficient was determined as a ratio of radioactivity of the organic (n-octanol) and aqueous (PBS solution) phases and was shown as the mean ± SD. The lipophilicity test was carried out as follows: the tested radiocompound dissolved in 10–20 µL of PBS was incubated and intensively mixed in an equal amount of these two phases. After centrifugation, radioactivity of appropriate amounts of the separated organic (500 µL) and aqueous (100 µL) phases were measured on the Wizard gamma counter. Differences in the volume of phases taken for measurement resulted from the very low radioactivity of organic phases and were included in the calculations. Additionally, to confirm the stability of the studied radiocompounds during the experiment, the RP-HPLC analyses of the aqueous phase were performed after each lipophilicity test.

[1] = format: in vitro ADME, human
Procedure: (§1) Radioconjugate stability tests in 0.1 M PBS solution, 1 mM cysteine (Cys) solution, 1 mM histidine (His) solution and human serum (HS) were performed under rigorous conditions according to the procedure described in detail in our previous paper. In brief, isolated radioconjugates were dissolved in 50 µL PBS and appropriate volume of Cys, His and HS solution and then incubated at 37 °C. After the specified incubation time (depending on the half-life of a given radionuclide), which was up to 4–8 h for the ^44Sc-radiocompounds, 4 h for the ^68Ga-radiocompounds and about 6–14 days for the ^177Lu-radiocompounds, aliquots of solution were withdrawn from the mixture and the composition of the solution was analyzed on RP-HPLC in System 3 or 4 with gamma detection. The concentrations of Cys and His solutions were about 1000 times higher than that of the studied radiocompound. In the case of the radioconjugate stability study in HS, the concentration of the radiocompound was a maximum of 2–25 nmol/mL in 100% human serum. After incubation, the protein components were precipitated with a 2.5-fold volume excess of ethanol prior to RP-HPLC analysis, and then both the supernatant and precipitate radioactivity were measured with a Wizard gamma counter. The percentage of radioactivity remaining in the supernatant and bound by the precipitated serum protein components was calculated as the ratio of the radioactivity of the supernatant or the precipitate, respectively, to the sum of the radioactivity of the supernatant and the precipitate.

[2] = format: physicochemical; conditions: pH 7.4
Procedure: as §1

ATWLPPR-OH [A7R, Ala-Thr-Trp-Leu-Pro-Pro-Arg, reference compound]
logIC50 ± SD (VEGF-A165/NRP-1 complex): −4.74 ± 0.02 | binding affinity for NRP-1 (VEGF-A165/NRP-1 complex): high binding affinity

N=C(N)NCCCC[C@H](N)C(=O)NCCCC[C@H](N)C(=O)N[C@@H](CCNC(=O)CCCCCNC(=O)CN1CCN(CC(=O)O)CCN(CC(=O)O)CCN(CC(=O)O)CC1)C(=O)N1CCC[C@H]1C(=O)N[C@@H](CCCNC(=N)N)C(=O)O [^44Sc-2, [^44Sc]Sc-DOTA-Ahx-K4R, metal not drawn] (H-K(hArg)[Dab]([Ahx-DOTA])PR-OH)
logP (physchem; pH 7.4, logP ± SD): -2.57 ± 0.02 | stability in human serum [1]: insufficient stability | stability in PBS buffer [2]: complete stability

CC(C)C[C@@H](NC(=O)[C@H]1CCCN1C(=O)[C@H]1CCCN1C(=O)[C@H](N)CCCNC(=N)N)C(=O)N[C@H](Cc1c[nH]c2ccccc12)C(=O)N[C@@H](C(=O)N[C@H](C)C(=O)O)[C@H](C)O [^DR7A, DArg-DPro-DPro-DLeu-DTrp-DThr-DAla, reference compound] (H-[dR][dP][dP][dL][dW][dT][dA]-OH; C-terminus assumed)
IC50 (VEGF-A165/NRP-1 complex): > 100 µM | binding affinity for NRP-1 (VEGF-A165/NRP-1 complex): very low binding affinity

N=C(N)NCCCC[C@H](N)C(=O)NCCCC[C@H](N)C(=O)N[C@@H](CCNC(=O)CCCCCNC(=O)CN1CCN(CC(=O)O)CCN(CC(=O)O)CCN(CC(=O)O)CC1)C(=O)N1CCC[C@H]1C(=O)N[C@@H](CCCNC(=N)N)C(=O)O [Sc-2, Lys(hArg)-Dab(Ahx-DOTA-Sc)-Pro-Arg] (H-K(hArg)[Dab]([Ahx-DOTA])PR-OH)
logIC50 ± SD (VEGF-A165/NRP-1 complex): −4.73 ± 0.03 | binding affinity for NRP-1 (VEGF-A165/NRP-1 complex): high binding affinity

CC(C)C[C@H](NC(=O)[C@H](Cc1c[nH]c2ccccc12)NC(=O)[C@@H](NC(=O)[C@H](C)NC(=O)[C@@H](N)CCCCNC(=O)CN1CCN(CC(=O)O)CCN(CC(=O)O)CCN(CC(=O)O)CC1)[C@@H](C)O)C(=O)N1CCC[C@H]1C(=O)N1CCC[C@H]1C(=O)N[C@@H](CCCNC(=N)N)C(=O)O [^68Ga-1bis, [^68Ga]Lys(DOTA-Ga)-A7R, metal not drawn] (H-K(DOTA)ATWLPPR-OH)
logP ± SD (physchem): −4.18 ± 0.07 | stability in human serum [1]: insufficient stability | stability in PBS buffer [2]: complete stability

CC(C)C[C@H](NC(=O)[C@H](Cc1c[nH]c2ccccc12)NC(=O)[C@@H](NC(=O)[C@H](C)NC(=O)[C@@H](N)CCCCNC(=O)CN1CCN(CC(=O)O)CCN(CC(=O)O)CCN(CC(=O)O)CC1)[C@@H](C)O)C(=O)N1CCC[C@H]1C(=O)N1CCC[C@H]1C(=O)N[C@@H](CCCNC(=N)N)C(=O)O [^44Sc-1bis, [^44Sc]Lys(DOTA-Sc)-A7R, metal not drawn] (H-K(DOTA)ATWLPPR-OH)
logP ± SD (physchem): −3.56 ± 0.06 | stability in human serum [1]: insufficient stability | stability in PBS buffer [2]: complete stability

CC(C)C[C@H](NC(=O)[C@H](Cc1c[nH]c2ccccc12)NC(=O)[C@@H](NC(=O)[C@H](C)NC(=O)[C@@H](N)CCCCNC(=O)CN1CCN(CC(=O)O)CCN(CC(=O)O)CCN(CC(=O)O)CC1)[C@@H](C)O)C(=O)N1CCC[C@H]1C(=O)N1CCC[C@H]1C(=O)N[C@@H](CCCNC(=N)N)C(=O)O [^177Lu-1bis, [^177Lu]Lys(DOTA-Lu)-A7R, metal not drawn] (H-K(DOTA)ATWLPPR-OH)
logP ± SD (physchem): −4.45 ± 0.03 | stability in human serum [1]: insufficient stability | stability in PBS buffer [2]: complete stability

CC(C)C[C@@H](NC(=O)[C@H]1CCCN1C(=O)[C@H]1CCCN1C(=O)[C@H](N)CCCNC(=N)N)C(=O)N[C@H](Cc1c[nH]c2ccccc12)C(=O)N[C@@H](C(=O)N[C@H](C)C(=O)N[C@H](CCCCNC(=O)CN1CCN(CC(=O)O)CCN(CC(=O)O)CCN(CC(=O)O)CC1)C(=O)O)[C@H](C)O [^44Sc-3, [^44Sc]^DR7A-^DLys(DOTA-Sc), metal not drawn] (H-[dR][dP][dP][dL][dW][dT][dA][dK](DOTA)-OH)
logP ± SD (physchem): −3.61 ± 0.03 | stability in human serum [1]: insufficient stability | stability in PBS buffer [2]: complete stability

N=C(N)NCCCC[C@H](N)C(=O)NCCCC[C@H](N)C(=O)N[C@@H](CCN)C(=O)N1CCC[C@H]1C(=O)N[C@@H](CCCNC(=N)N)C(=O)O [K4R, Lys(hArg)-Dab-Pro-Arg] (H-K(hArg)[Dab]PR-OH)
logIC50 ± SD (VEGF-A165/NRP-1 complex): −5.32 ± 0.12 | binding affinity for NRP-1 (VEGF-A165/NRP-1 complex): high binding affinity

CC(C)C[C@H](NC(=O)[C@H](Cc1c[nH]c2ccccc12)NC(=O)[C@@H](NC(=O)[C@H](C)NC(=O)CCCCCNC(=O)CN1CCN(CC(=O)O)CCN(CC(=O)O)CCN(CC(=O)O)CC1)[C@@H](C)O)C(=O)N1CCC[C@H]1C(=O)N1CCC[C@H]1C(=O)N[C@@H](CCCNC(=N)N)C(=O)O [Sc-1, Sc-DOTA-Ahx-A7R] ({DOTA-Ahx}-ATWLPPR-OH)
logIC50 ± SD (VEGF-A165/NRP-1 complex): −4.65 ± 0.12 | binding affinity for NRP-1 (VEGF-A165/NRP-1 complex): high binding affinity

CC(C)C[C@H](NC(=O)[C@H](Cc1c[nH]c2ccccc12)NC(=O)[C@@H](NC(=O)[C@H](C)NC(=O)[C@@H](N)CCCCNC(=O)CN1CCN(CC(=O)O)CCN(CC(=O)O)CCN(CC(=O)O)CC1)[C@@H](C)O)C(=O)N1CCC[C@H]1C(=O)N1CCC[C@H]1C(=O)N[C@@H](CCCNC(=N)N)C(=O)O [Sc-1bis, Lys(DOTA-Sc)-A7R] (H-K(DOTA)ATWLPPR-OH)
logIC50 ± SD (VEGF-A165/NRP-1 complex): −4.74 ± 0.01 | binding affinity for NRP-1 (VEGF-A165/NRP-1 complex): high binding affinity

CC(C)C[C@@H](NC(=O)[C@H]1CCCN1C(=O)[C@H]1CCCN1C(=O)[C@H](N)CCCNC(=N)N)C(=O)N[C@H](Cc1c[nH]c2ccccc12)C(=O)N[C@@H](C(=O)N[C@H](C)C(=O)N[C@H](CCCCNC(=O)CN1CCN(CC(=O)O)CCN(CC(=O)O)CCN(CC(=O)O)CC1)C(=O)O)[C@H](C)O [Ga-3, ^DR7A-^DLys(DOTA-Ga)] (H-[dR][dP][dP][dL][dW][dT][dA][dK](DOTA)-OH)
IC50 (VEGF-A165/NRP-1 complex): > 100 µM

CC(C)C[C@@H](NC(=O)[C@H]1CCCN1C(=O)[C@H]1CCCN1C(=O)[C@H](N)CCCNC(=N)N)C(=O)N[C@H](Cc1c[nH]c2ccccc12)C(=O)N[C@@H](C(=O)N[C@H](C)C(=O)N[C@H](CCCCNC(=O)CN1CCN(CC(=O)O)CCN(CC(=O)O)CCN(CC(=O)O)CC1)C(=O)O)[C@H](C)O [Sc-3, ^DR7A-^DLys(DOTA-Sc)] (H-[dR][dP][dP][dL][dW][dT][dA][dK](DOTA)-OH)
binding affinity for NRP-1 (VEGF-A165/NRP-1 complex): very low binding affinity
